Reference: patent US20250215467A1, “L-THREONINE TRANSALDOLASES AND USES THEREOF” (University of Delaware, priority 2022, published 2025)

Tested on: wild-type E. coli MG1655
Assay: β-OH-nsAA biosynthesis during aerobic fermentation in wild-type E. coli MG1655
Format: cell-based, Escherichia coli
Conditions: SUMO-tagged construct, 1 mM 3, 20 h
Description: Metabolites of interest were quantified via high-performance liquid chromatography (HPLC) using an Agilent 1260 Infinity model equipped with a Zorbax Eclipse Plus-C18 column. To quantify aldehyde and β-OH-nsAAs, an initial mobile phase of solvent A/B=95/5 was used (solvent A, water+0.1% TFA; solvent B, acetonitrile+0.1% TFA) and maintained for 5 min. A gradient elution was performed (A/B) as follows: gradient from 95/5 to 50/50 for 5-12 min, gradient from 50/50 to 0/100 for 12-13 min, and gradient from 0/100 to 95/5 for 13-14 min. A flow rate of 1 mL min-1 was maintained, and absorption was monitored at 210, 250 and 280 nm.
For screening TTA activity in aerobically growing cells, we inoculated strains transformed with plasmids expressing TTAs into 300 μL volumes of MOPS EZ Rich media in a 96-deep-well plate with appropriate antibiotic added to maintain plasmids (50 μg/mL kanamycin (Kan)). Cultures were incubated at 37° C. with shaking at 1000 RPM and an orbital radius of 1.25 mm until an OD600 of 0.5-0.8 was reached. OD600 was measured using a SPECTRAMAX® i3× plate reader. At this point, the TTAs were induced with addition of 0.2 nM aTc for TTA expression. Then, 2 h following induction of the TTAs, 1 mM aldehyde was added to the culture. Cultures were then incubated over 20 h at 30° C. with metabolite concentration measured via supernatant sampling and submission to HPLC. […]

B1: PbTTA: L-threonine transaldolase, SEQ ID NO: 16, Parachlamydiales bacterium, MBN2478762.1 (protein, listed as Parachlamydiales bacterium)
chain: METSLKDFETILHLINKEEIDSNDTIHMTANENIMSKLSKHYLKSTLSYRYHVGMFDDQKNLTVSRSCLIKNSLMLRCLSPIFLLEQQAREYVKKMFFAEYADFRPLSGMHTVFCILSTLTKPNDRVYVFTTESVGHAATVSLLKSLGRKVSFIPFCEKKLDIDLEKLSKQILIEKPNAILFDFGTPFYPLPIREIREIVGNDVKMIYDASHVLGLIAGGQFQNPLLEGCDVLIGNTHKTFPGPQKGMILYKNKSLGKEIATEIFKSAISAQHTHHAIALYVTIIEMYIHGKEYANQIIKNNHALSQALINEGFKIFKRKNQFSLSHMIAITGDFPIDHHVACADLHNSNISTNSRILYDFPAVRIGVQEVTRKGMKEKDMVQLAKFFKEIILDRKNISSKIKEFNNKFNSIEYSLDEIYEKLF
Which results are given for B1?
β-OH-nsAA titer (MG1655, 100 mM L-Thr supplemented): 0.47 ± 0.04 mM; β-OH-nsAA titer (MG1655, physiological levels of L-Thr): 0.09 ± 0.01 mM
